We go through one molecule from PMC6629125, “Lysyl oxidase–like 2 (LOXL2)–mediated cross-linking of tropoelastin” (The FASEB Journal, 2019).

The Kd is the free concentration of one partner at which half of the binding sites on the other are occupied at equilibrium, for simple one-to-one binding.

This experiment deals with T1, full-length lysyl oxidase-like 2 (FL-LOXL2), recombinant human (human, UniProt Q9Y4K0 26-774).
T1 construct: Lysyl oxidase-like 2 (LOXL2), human, full-length cDNA in pcDNA3.1-myc-His, amplified from the start ATG; the protein was secreted by CHO cells; also called LOX-like 2; source: DHFR-deficient CHO cells, transfected, secreted into Opti-MEM; purified (HisTrap, gel filtration)
T1 sequence (looked up): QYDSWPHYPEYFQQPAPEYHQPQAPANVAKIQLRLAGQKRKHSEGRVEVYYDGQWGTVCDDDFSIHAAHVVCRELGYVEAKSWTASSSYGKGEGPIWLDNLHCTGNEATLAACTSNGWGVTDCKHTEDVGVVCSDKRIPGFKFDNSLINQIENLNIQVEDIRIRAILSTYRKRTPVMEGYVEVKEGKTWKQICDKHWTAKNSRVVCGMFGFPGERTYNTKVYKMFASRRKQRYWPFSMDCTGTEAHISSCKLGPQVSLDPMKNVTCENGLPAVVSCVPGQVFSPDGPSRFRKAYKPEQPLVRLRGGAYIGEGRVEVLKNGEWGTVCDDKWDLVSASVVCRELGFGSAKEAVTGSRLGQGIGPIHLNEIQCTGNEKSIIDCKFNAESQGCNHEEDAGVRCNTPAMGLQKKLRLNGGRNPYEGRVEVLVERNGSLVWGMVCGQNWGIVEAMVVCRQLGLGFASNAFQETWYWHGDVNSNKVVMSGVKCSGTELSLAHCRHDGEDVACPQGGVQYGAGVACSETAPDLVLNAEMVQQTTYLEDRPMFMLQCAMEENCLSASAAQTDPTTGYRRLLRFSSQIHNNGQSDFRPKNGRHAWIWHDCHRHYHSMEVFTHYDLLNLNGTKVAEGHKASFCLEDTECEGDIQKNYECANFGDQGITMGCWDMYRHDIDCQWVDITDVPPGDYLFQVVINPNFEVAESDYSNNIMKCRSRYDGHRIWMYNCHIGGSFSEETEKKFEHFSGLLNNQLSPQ
Briefly: SPR; ProteOn XPR36; LOXL2 amine-coupled on a GLC chip; TE as analyte, serial 1:1 dilution from 830 nM; 10 mM Na-HEPES, 150 mM NaCl, 2 mM CaCl2, 0.05% Tween 20, pH 7.4, 25°C; steady-state analysis. The following applies: both partners purified. (SPR reads the build-up and loss of mass on a sensor chip optically.)

B1: human tropoelastin, isoform 2 (natural protein, UniProt P15502-2 27-724, looked up)
chain: GGVPGAIPGGVPGGVFYPGAGLGALGGGALGPGGKPLKPVPGGLAGAGLGAGLGAFPAVTFPGALVPGGVADAAAAYKAAKAGAGLGGVPGVGGLGVSAGAVVPQPGAGVKPGKVPGVGLPGVYPGGVLPGARFPGVGVLPGVPTGAGVKPKAPGVGGAFAGIPGVGPFGGPQPGVPLGYPIKAPKLPGGYGLPYTTGKLPYGYGPGGVAGAAGKAGYPTGTGVGPQAAAAAAAKAAAKFGAGAAGVLPGVGGAGVPGVPGAIPGIGGIAGVGTPAAAAAAAAAAKAAKYGAAAGLVPGGPGFGPGVVGVPGAGVPGVGVPGAGIPVVPGAGIPGAAVPGVVSPEAAAKAAAKAAKYGARPGVGVGGIPTYGVGAGGFPGFGVGVGGIPGVAGVPGVGGVPGVGGVPGVGISPEAQAAAAAKAAKYGVGTPAAAAAKAAAKAAQFGLVPGVGVAPGVGVAPGVGVAPGVGLAPGVGVAPGVGVAPGVGVAPGIGPGGVAAAAKSAAKVAAKAQLRAAAGLGAGIPGLGVGVGVPGLGVGAGVPGLGVGAGVPGFGAVPGALAAAKAAKYGAAVPGVLGGLGALGGVGIPGGVVGAGPAAAAAAAKAAAKAAQFGLVGAAGLGGLGVGGLGVPGVGGLGGIPPAAAAKAAKYGAAGLGGVLGGAGQFPLGGVAARPGFGLSPIFPGGACLGKACGRKRK
notes: also called TE; source: E. coli, purified (acetone/buffer extraction, filtration, dialysis, freeze drying)
Turning to B1, the Kd turned out to be 146 nM.
